Here are results for three molecules from US20230322857A1, “RECOMBINANTLY ENGINEERED POLYPEPTIDES CAPABLE OF RECYCLING NONCANONICAL COFACTORS” (The Regents of the University of California, priority 2022, published 2023).

For data set [1], the system named is E. coli SHuffle strain. Description: GDH-Gor coupled growth rescue in SHuffle strain. It is filed as cell-based, Escherichia coli. The settings on record: 0.5 mM diamide, NMN^+ 0, 2, 4 and 6 mM. The protocol:
Culture conditions for GDH-Gor coupled growth rescue in SHuffle strain. The electro-competent cells of SHuffle harboring pLZ311 or pLZ312 were made as follows: The SHuffle cells were cultured in 200 mL SOB media with spectinomycin at 30° C. with shaking until OD600 reached 0.4-0.6. The culture was chilled on ice for 15 min and the cells were pelleted at 4° C., 4,000×g. Collected cells were washed with 10% glycerol in water (sterile, ice cold) and resuspended with 5 mL of 10% glycerol in water (sterile, ice cold), and stored as 50 μL aliquots at −80° C.
Glucose facilitator (encoded by glf) was used for uptake of unphosphorylated glucose into the cells. The co-transformation of Bs gdh and Zm glf was performed as follows: Thaw SHuffle/pLZ311 or SHuffle/pLZ312 electro-competent cells on ice, add 1 μL Bs gdh (pEK101 or pLZ210) and 1 μL Zm glf(pSM109) plasmid DNA to 50 μL competent cells, mix, and electroporate. Cells were recovered with 1 mL SOC at 37° C. with shaking for 1 h. The cells were added to 10 mL 2×YT with 10 g/L glucose, 0.5% arabinose, kanamycin, chloramphenicol, and ampicillin. After incubation at 37° C. with shaking for 10 h, 1 mL cells were washed 3 times and re-suspended in M9 buffer (1×BD Difco M9 Salts). Targeted dilutions after cells reached density of OD600 0.6 were prepared in M9 buffer and 5 μL aliquots were dispensed in series on an agar plate of M9 selection media containing 0.5 mM diamide, 1 g/L yeast extract, 10 g/L glucose, 0.5% arabinose, 0.5 mM IPTG, ampicillin, kanamycin, chloramphenicol and serial NMN concentrations of 0, 2, 4 and 6 mM. Selection plates were incubated at 37° C., and photos were taken to document growth progress.

Data set [2] is described as follows: Steady-state kinetics of TS-PTDH variants with NADP^+. It is filed as biochemical. The settings on record: 100 mM MOPS, pH 7.25, 10 mM sodium phosphite, varied cofactor concentrations; n = 3. The protocol:
(§1) Purification and Characterization of TS-PTDH Variants. The E. coli BL21(DE3) strains harboring pQElac plasmids encoding the TS-PTDH or TS-PTDH variants were grown in 2×YT media with kanamycin and ampicillin at 37° C. The IPTG-inducible expression, Ni-affinity purification, and protein concentration determination was conducted as described above.
(§2) The steady-state kinetic parameters toward the coenzymes were measured by spiking purified protein into a 100 μL reaction mixture containing 100 mM MOPS, pH 7.25, 10 mM sodium Pt, and varied cofactor concentrations from 0.02 mM to 5 mM at 25° C. The kinetic parameters were measured by monitoring the […] of reduced coenzyme at 340 nm. Data were fitted to the Michaelis-Menten equation to generate estimates of KM and kcat values.

Data set [3] can be described thus: Steady-state kinetics of TS-PTDH variants with NMN^+. It counts as biochemical. The protocol:
as §1, §2

A short description of data set [4]: Steady-state kinetics of TS-PTDH variants with NAD^+. The settings on record: 100 mM MOPS, pH 7.25, 10 mM sodium phosphite, varied cofactor concentrations; n = 3. It is filed as biochemical. The protocol: as §1, §2
Data set [5] has as its system E. coli SHuffle strain. Kind of data set: Recapitulation of growth restoration with TS-PTDH variants in SHuffle strain. It counts as cell-based, Escherichia coli. Particulars: spotted onto agar selection plates. The protocol: Selection of TS-PTDH Library. A total of 50 μL pre-made SHuffle/pLZ311 or SHuffle/pLZ312 electro-competent cells were transformed with 2 μL TS-PTDH A155N-E175-A176-L208 NNK library DNA (pLZ316) via electroporation as described above. After rescue in SOC media for 1 h, cultures were combined in 10 mL 2×YT with 10 g/L glucose, 0.5% arabinose, kanamycin and ampicillin. 0.2, or 1 μL of culture was immediately taken from the culture and plated on an 2×YT agar plates with kanamycin and ampicillin. The plate was incubated at 37° C. overnight, and the number of colonies formed was counted to estimate the library size. The liquid cultures were incubated at 37° C. with shaking for 10 h. Cells (1 mL) were washed 3 times and re-suspended in M9 Buffer. Targeted serial dilutions of cells were prepared in M9 buffer and 5 μL aliquots were dispensed in series on an agar plate of M9 selection media containing 0.5 mM diamide, 5 or 1 g/L yeast extract, 10 g/L glucose, 0.5% arabinose, 0.5 mM IPTG, 10 g/L sodium phosphite, kanamycin, ampicillin, and 5 mM NMN^+. Selection plates were incubated at 37° C., and photographs were taken to document growth progress. The independent transformants sampled was calculated as 2.4×10^6 and 2.5×10^6 colonies when plated on 5 and 1 g/L yeast extract, respectively. TS-PTDH and the template of the library, TS-PTDH A155N, were cultured in the same conditions as controls. The colonies were numbered by the order of appearance. The selected cells were re-streaked on fresh agar plate with identical media and incubated until single colonies formed on the plate. Variants that cannot forma single colony may be false positives. After extracting the plasmids from each re-streaked colony, the chosen TS-PTDH variants were amplified and moved into the pQElac vector containing a N-terminal 6×His tag for protein purification and characterization. […] 2 μL of a serial dilution of cells were deposited onto a growth selection plate and grown at 37° C.

The nature of data set [6]: BNA(H)-mediated PTDH biotransformation with TsOYE. It counts as biochemical. The protocol:
BNA(H)-Mediated PTDH Biotransformation. Reactions with BNA^+, see FIG. 10D, contained 100 mM MOPS-NaOH at pH 7.6, 10 mM KIP, 100 mM sodium phosphite, and 2% v/v DMSO. BNA^+Cl^−, prepared by refluxing equimolar amounts of nicotinamide and benzyl chloride in acetonitrile overnight, followed by precipitation with diethyl ether on ice was supplied to the reactions at final concentrations of 0, 5, 10, or 20 mM. Reactions were initiated by spiking TsOYE and the appropriate TS-PTDH variant to a final concentration of 10 μM, each. Reaction mixtures were incubated at 30° C. on a Thermomixer C (Eppendorf) with shaking at 900 rpm for 24 h, extracted with 500 μL ethyl acetate containing 5 mM n-dodecane, and analyzed by GC-FID. The cycling system with no BNA was used to determine the background activity of the cycling systems. This value was subtracted from the final levodione concentrations in the 5-, 10-, and 20-mM samples to determine the BNA(H)^− specific levodione production. Concentrations of levodione product were determined using a calibration line (0-10 mM, 6 levels, using n-dodecane as internal standard). The y-intercept of the calibration line was forced through 0.
For BNA(H)-mediated reactions, gas chromatography analyses were performed on a GC-2010 (Shimadzu, Japan) equipped with an AOC-20i auto injector and a flame ionization detector (FID), using a CP-Sil 5 column (25 m×0.25 mm×[…]). 1 μL of sample was injected with a split ratio of 100:1 and injector at 340° C. The FID was maintained at 360° C. Nitrogen was used as the carrier gas, with a linear velocity of 30 cm/s. The oven was held at 135° C. for 1 min, ramped at 15° C./min to 215° C., then 30° C./min to 345° C., and held at 345° C. for 1 min.
Expression and Purification of Proteins for BNA(H)-Mediated Biotransformation Reactions. E. coli BL21(DE3) strains were transformed with the plasmids containing the TS-PTDH variants and grown on LB-agar plates containing ampicillin at 37° C. overnight. An overnight culture, 15 mL LB supplemented with ampicillin, was inoculated with a single colony, and grown at 37° C., 170 rpm overnight. 2 L baffled shake-flasks with 250 mL of 2×YT media containing 200 μg/mL ampicillin, were inoculated with the overnight culture, grown at 37° C., 170 rpm until OD600 of ˜1.0, induced with IPTG (0.5 mM), and grown at 30° C. and 170 rpm for 24 h. Cells were harvested by centrifugation at 18,000×g, 4° C., 10 min and stored at −20° C. until purification.
The pellet was resuspended in four volumes loading buffer (50 mM sodium phosphate, 300 mM sodium chloride, 10 mM imidazole, pH 7.7), and lysed on ice by sonication (Branson sonifier 250; 15 min total, 40% duty cycle, output control 3.5, 2 mm tip). The lysate was clarified (21,000×g, 4° C., 30 min followed by 0.2 μm filtration), and loaded (1 mL/min) onto a Nickel-HisTrap FF crude (1 mL) column, washed with loading buffer (12 column volumes, CV), followed by a step with 10% elution buffer (loading buffer containing 250 mM imidazole; 12 CV). The protein was then eluted with 100% elution buffer and collected in fractions of 0.5 mL. Fractions containing protein were combined and dialyzed against ice-cold dialysis buffer (50 mM sodium phosphate, pH 7.7, 800 mL); the buffer was renewed after the first 2 h of dialysis. Following the dialysis, the protein was mixed with glycerol (20% v/v final concentration). Enzyme concentrations were estimated by the absorbance at 280 nm (non-denatured protein), using predicted extinction coefficients (wild type and LY-13: 26470, LY-7: […]; web.expasy.org/protparam/). The protein was aliquoted, flash frozen in liquid nitrogen, and stored at −80° C. until use. […]

Where [7] appears, read: 100 mM MOPS, pH 7.25, 10 mM sodium phosphite, varied cofactor concentrations, n = 3.

Changes are numbered by the printed parent chain. Names may count otherwise.

As usually defined, the Km is the substrate concentration at which the rate is half of its maximum.

B1: wild type Bs GDH: wild type Bacillus subtilis glucose dehydrogenase, reduces NAD(P)^+ but not NMN^+ (protein, UniProt P12310 1-261, looked up)
Glucose 1-dehydrogenase: MYPDLKGKVVAITGAASGLGKAMAIRFGKEQAKVVINYYSNKQDPNEVKEEVIKAGGEAVVVQGDVTKEEDVKNIVQTAIKEFGTLDIMINNAGLENPVPSHEMPLKDWDKVIGTNLTGAFLGSREAIKYFVENDIKGNVINMSSVHEVIPWPLFVHYAASKGGIKLMTETLALEYAPKGIRVNNIGPGAINTPINAEKFADPKQKADVESMIPMGYIGEPEEIAAVAAWLASKEASYVTGITLFADGGMTQYPSFQAGRG
B1: the “cell growth of SHuffle strain harboring Gor Ortho with the NMN^+-reducing enzyme” value in data set [1] is “did not support cell growth”.

B2: TS-PTDH A155N: Pseudomonas stutzeri phosphite dehydrogenase with A155N substitution (SEQ ID NO:3) (protein)
chain: MLPKLVITHRVHEEILQLLAPHCELITNQTDSTLTREEILRRCRDAQAMMAFMPDRVDADFLQACPELRVIGCALKGFDNFDVDACTARGVWLTFVPDLLTVPTAELAIGLAVGLGRHLRAADAFVRSGKFRGWQPRFYGTGLDNATVGFLGMGNIGLAMADRLQGWGATLQYHEAKALDTQTEQRLGLRQVACSELFASSDFILLALPLNADTLHLVNAELLALVRPGALLVNPCRGSVVDEAAVLAALERGQLGGYAADVFEMEDWARADRPQQIDPALLAHPNTLFTPHIGSAVRAVRLEIERCAAQNILQALAGERPINAVNRLPKANPAAD
Turning to B2, the Km in data set [2] is 630 ± 70 µM; in data set [3] (enzyme could not be saturated, 100 mM MOPS, pH 7.25, 10 mM sodium phosphite), above 5000 µM; in data set [4], 80 ± 10 µM. Also, in data set [2], the “NADP^+ kcat” value was 0.88 ± 0.08 s⁻¹. The “increase in catalytic efficiency for NMN^+ compared to TS-PTDH (wild type enzyme)” value in data set [3] (vs TS-PTDH) is around 30 fold. Besides, the “NAD^+ kcat” value in data set [4] is 1.46 ± 0.13 s⁻¹. The “growth restoration, co-expression with NMNH-specific Gor Ortho” value in data set [5] is “restored growth at a low level”.

B3: LY-7: phosphite dehydrogenase variant with A155N, E175W, A176G, L208V (SEQ ID NO:5) (protein)
chain: B2 chain with E175W, A176G, L208V
Consider B3, for which, in data set [2], the Km came to 110 ± 10 µM and the “NADP^+ kcat” value is 0.56 ± 0.03 s⁻¹. Besides, in data set [3] (setting [7]), the Km was 1400 ± 100 µM and the “NMN^+ kcat” value came to 0.16 ± 0.01 s⁻¹. Further, the “increased catalytic efficiency (kcat/Km) for NMN^+ compared to TS-PTDH A155N” value in data set [3] (vs parent enzyme TS-PTDH A155N) was around 11 fold. In addition, in data set [6], the “activity / cycling with BNA^+ compared to wild type” value is given as “enhanced activity for BNA^+ reduction”. The “response of biotransformation efficiency to BNA^+ concentration” value in data set [6] (0, 5, 10, or 20 mM BNA^+) was “cofactor dose-dependent response”. For the same molecule, the “utilization of the BNA^+ pool relative to the wild type protein” value in data set [6] (20 mM BNA^+ supplementation, TsOYE, 24 h) was “improved utilization of the BNA^+ pool”. Besides, in data set [4], the Km was 750 ± 30 µM and the “NAD^+ kcat” value is 0.71 ± 0.04 s⁻¹.
